Common to all, as to assay: cell-based or functional assay
Assay [1] concerns the target T1, glucagon receptor (UniProt P47871 26-477, limits assumed).
The target in assay [2] is T2, GLP-1 receptor (UniProt P43220 24-463, limits assumed).
For assay [3], the target named is T1, glucagon receptor. This is another data set of the same source.
Assay [4] concerns the target T2, GLP-1 receptor. This is another data set of the same source.
Target sequence in this assay (P43220 24-463 limits assumed): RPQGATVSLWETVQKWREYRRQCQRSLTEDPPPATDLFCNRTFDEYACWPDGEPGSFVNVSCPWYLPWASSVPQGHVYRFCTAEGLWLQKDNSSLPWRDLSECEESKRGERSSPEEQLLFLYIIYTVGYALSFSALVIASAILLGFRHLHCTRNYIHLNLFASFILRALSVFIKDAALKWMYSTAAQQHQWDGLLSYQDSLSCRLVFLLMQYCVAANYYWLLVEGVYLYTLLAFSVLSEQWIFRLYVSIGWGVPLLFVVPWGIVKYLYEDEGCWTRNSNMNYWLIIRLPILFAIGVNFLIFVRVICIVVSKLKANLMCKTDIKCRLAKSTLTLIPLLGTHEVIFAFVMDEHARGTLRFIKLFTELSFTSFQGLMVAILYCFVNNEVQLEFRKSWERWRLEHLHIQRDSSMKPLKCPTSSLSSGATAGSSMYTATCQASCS
In assay [5] the target is T1, glucagon receptor. This is another data set of the same source.
In assay [6] the target is glucagon receptor (UniProt P47871).
For assay [7], the target named is GLP-1 receptor (UniProt P43220).
The target of assay [8] is glucagon receptor (UniProt P47871). This is another data set of the same source.
Assay [9] has as its target T2, GLP-1 receptor. The source holds these as a separate data set.
The target of assay [10] is T2, GLP-1 receptor. This is another data set of the same source.
Target sequence in this assay (P43220 24-463 limits assumed): as above
The target of assay [11] is T1, glucagon receptor. This is another data set of the same source.
Assay [12] deals with T2, GLP-1 receptor. The source holds these as a separate data set.

Where two headings read alike, the source gives them in different places. Starred links: 1 amine or outer side, 2 acyl side, 3 side chain; linkers in the order of their positions; H or OH if unused. Positions of bridges follow the written chain, without caps; N, C: chain ends. Non-standard residues stand in square brackets, D forms with d. Groups on a side chain read outwards from the residue. No end group written: not given here. estradiol (3-ether, amide-linked) = estradiol attached through its 3-position ether, via an amide; PhLac = O=C(O)[C@@H](O)Cc1ccccc1; Suc = O=C(CCC(=O)[*:2])[*:1]; Aib = CC(C)(N)C(=O)O

T1 sequence (P47871 26-477 limits assumed): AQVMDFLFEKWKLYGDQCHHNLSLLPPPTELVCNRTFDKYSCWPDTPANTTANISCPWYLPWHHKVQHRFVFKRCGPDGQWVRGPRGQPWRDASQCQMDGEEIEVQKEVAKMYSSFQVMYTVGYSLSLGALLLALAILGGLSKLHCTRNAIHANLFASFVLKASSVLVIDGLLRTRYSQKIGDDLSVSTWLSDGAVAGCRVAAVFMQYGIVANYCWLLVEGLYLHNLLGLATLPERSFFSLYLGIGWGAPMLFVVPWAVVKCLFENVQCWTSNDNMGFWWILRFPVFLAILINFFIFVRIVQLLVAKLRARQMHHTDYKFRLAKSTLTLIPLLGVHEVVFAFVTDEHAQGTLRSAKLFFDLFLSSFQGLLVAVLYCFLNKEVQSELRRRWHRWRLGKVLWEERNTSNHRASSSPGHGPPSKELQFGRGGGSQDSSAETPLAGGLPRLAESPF
glucagon receptor (UniProt P47871), sequence (P47871 26-477 limits assumed): as above
GLP-1 receptor (UniProt P43220), sequence (P43220 24-463 limits assumed): as the sequence (P43220 24-463 limits assumed) above

B1: [PLA6, D9, E16K20(lactam), D28]G(6-29) (peptide)
peptide: [PhLac]TSDYSKYLDERRAKDFVQWLMDT-NH2
modifications: lactam 11-15
As for B1, the “Glucagon IC50” value is 10 to 30 nM in the assay with glucagon receptor [1] and 6 nM with glucagon receptor [3]. Besides, in the assay with GLP-1 receptor [2], the “GLP-1 EC50” value was 4 nM.

B2: [PLA6, D9, E16, K20E24(Lactam), D28]G(6-29) (peptide)
peptide: [PhLac]TSDYSKYLDERRAKDFVEWLMDT-NH2
modifications: lactam 15-19; N-terminus assumed
SMILES: CSCC[C@H](NC(=O)[C@H](CC(C)C)NC(=O)[C@H](Cc1c[nH]c2ccccc12)NC(=O)[C@@H]1CCC(=O)NCCCC[C@H](NC(=O)[C@H](C)NC(=O)[C@H](CCCNC(=N)N)NC(=O)[C@H](CCCNC(=N)N)NC(=O)[C@H](CCC(=O)O)NC(=O)[C@H](CC(=O)O)NC(=O)[C@H](CC(C)C)NC(=O)[C@H](Cc2ccc(O)cc2)NC(=O)[C@H](CCCCN)NC(=O)[C@H](CO)NC(=O)[C@H](Cc2ccc(O)cc2)NC(=O)[C@H](CC(=O)O)NC(=O)[C@H](CO)NC(=O)[C@@H](NC(=O)[C@@H](O)Cc2ccccc2)[C@@H](C)O)C(=O)N[C@@H](CC(=O)O)C(=O)N[C@@H](Cc2ccccc2)C(=O)N[C@@H](C(C)C)C(=O)N1)C(=O)N[C@@H](CC(=O)O)C(=O)N[C@H](C(N)=O)[C@@H](C)O
Consider B2, for which the GLP-1 EC50 with GLP-1 receptor [4] was 239 nM. The same molecule displayed a Glucagon IC50 with glucagon receptor [5] of 74 nM.

B3: [PLA6, E9, K12E16(Lactam)] glucagon(6-39) Cex peptide (peptide)
peptide: XTSEYSKYLDERRAQDFVQWLMNTGPSSGAPPPS
modifications: not fully specified; X1 = PLA (phenyl lactic acid in place of Phe 6 of glucagon); lactam bridge K12-E16 (glucagon numbering; residues 7 and 11 of this chain)
Take B3: in the assay with glucagon receptor [6], the Glu IC50 worked out at 72 nM. This molecule also came in with a GLP-1 EC50 with GLP-1 receptor [7] of 6 nM. Also, the Glucagon IC50 with glucagon receptor [8] was 72 nM.

B4: [A2E3, E16K20(Lactam), D28]G(2~29) (peptide)
peptide: AEGTFTSEYSKYLDERRAKDFVQWLMDT-NH2
modifications: lactam 15-19
In the case of B4, in the assay with glucagon receptor [1], the “Glucagon IC50” value is 63 nM.

B5: [E9, E16K20(lactam), D28]G(4~29) (peptide)
peptide: GTFTSEYSKYLDERRAKDFVQWLMDT-NH2
modifications: lactam 13-17; N-terminus assumed
SMILES: CSCC[C@H](NC(=O)[C@H](CC(C)C)NC(=O)[C@H](Cc1c[nH]c2ccccc12)NC(=O)[C@H](CCC(N)=O)NC(=O)[C@@H](NC(=O)[C@H](Cc1ccccc1)NC(=O)[C@H](CC(=O)O)NC(=O)[C@@H]1CCCCNC(=O)CC[C@H](NC(=O)[C@H](CC(=O)O)NC(=O)[C@H](CC(C)C)NC(=O)[C@H](Cc2ccc(O)cc2)NC(=O)[C@H](CCCCN)NC(=O)[C@H](CO)NC(=O)[C@H](Cc2ccc(O)cc2)NC(=O)[C@H](CCC(=O)O)NC(=O)[C@H](CO)NC(=O)[C@@H](NC(=O)[C@H](Cc2ccccc2)NC(=O)[C@@H](NC(=O)CN)[C@@H](C)O)[C@@H](C)O)C(=O)N[C@@H](CCCNC(=N)N)C(=O)N[C@@H](CCCNC(=N)N)C(=O)N[C@@H](C)C(=O)N1)C(C)C)C(=O)N[C@@H](CC(=O)O)C(=O)N[C@H](C(N)=O)[C@@H](C)O
With B5, in the assay with GLP-1 receptor [9], the “GLP-1 EC50” value worked out at 151 nM. Moreover, the “Glucagon IC50” value with glucagon receptor [1] lay in the range of 10 to 30 nM.

B6: ANK2 (Bayer peptide) (peptide)
peptide: HSQGTFTSDYARYLDARRAREFIKWLVRGRG
In the case of B6, in the assay with GLP-1 receptor [9], the “GLP-1 EC50” value stood at 0.28 nM.

B7: [PLA6, D9, E16, E24K28(lactam)]G(6~29) (peptide)
peptide: [PhLac]TSDYSKYLDERRAQDFVEWLMKT-NH2
modifications: lactam 19-23; N-terminus assumed
SMILES: CSCC[C@@H]1NC(=O)[C@H](CC(C)C)NC(=O)[C@H](Cc2c[nH]c3ccccc23)NC(=O)[C@@H](NC(=O)[C@@H](NC(=O)[C@H](Cc2ccccc2)NC(=O)[C@H](CC(=O)O)NC(=O)[C@H](CCC(N)=O)NC(=O)[C@H](C)NC(=O)[C@H](CCCNC(=N)N)NC(=O)[C@H](CCCNC(=N)N)NC(=O)[C@H](CCC(=O)O)NC(=O)[C@H](CC(=O)O)NC(=O)[C@H](CC(C)C)NC(=O)[C@H](Cc2ccc(O)cc2)NC(=O)[C@H](CCCCN)NC(=O)[C@H](CO)NC(=O)[C@H](Cc2ccc(O)cc2)NC(=O)[C@H](CC(=O)O)NC(=O)[C@H](CO)NC(=O)[C@@H](NC(=O)[C@@H](O)Cc2ccccc2)[C@@H](C)O)C(C)C)CCC(=O)NCCCC[C@@H](C(=O)N[C@H](C(N)=O)[C@@H](C)O)NC1=O
For the molecule B7, the GLP-1 EC50 with GLP-1 receptor [4] was determined as 289 nM. In addition, in the assay with glucagon receptor [5], the Glucagon IC50 is 22 nM.

B8: Inactive GLP-1 (d-amino acid containing)/Estrogen(3-ether) (peptide)
peptide: [dA][Aib][dE]G[dT][dF][dT][dS][dD][dV][dS][dS][dY][dL][dE]G[dQ][dA][dA][dK][dE][dA][dI][dA][dW][dL][dV][dK]GG[dP][dS][dS]G[dA][dP][dP][dP][dS]K(estradiol (3-ether, amide-linked))-NH2
In the case of B8, the “GLP-1 EC50 (cAMP induction, CRE-luciferase in HEK293 cells)” value with GLP-1 receptor [10] came to 418 nM.

B9: [A2E3, E16K20(Lactam), D28]G(1~29) (peptide)
peptide: HAEGTFTSEYSKYLDERRAKDFVQWLMDT-NH2
modifications: lactam 16-20; N-terminus assumed
SMILES: CSCC[C@H](NC(=O)[C@H](CC(C)C)NC(=O)[C@H](Cc1c[nH]c2ccccc12)NC(=O)[C@H](CCC(N)=O)NC(=O)[C@@H](NC(=O)[C@H](Cc1ccccc1)NC(=O)[C@H](CC(=O)O)NC(=O)[C@@H]1CCCCNC(=O)CC[C@H](NC(=O)[C@H](CC(=O)O)NC(=O)[C@H](CC(C)C)NC(=O)[C@H](Cc2ccc(O)cc2)NC(=O)[C@H](CCCCN)NC(=O)[C@H](CO)NC(=O)[C@H](Cc2ccc(O)cc2)NC(=O)[C@H](CCC(=O)O)NC(=O)[C@H](CO)NC(=O)[C@@H](NC(=O)[C@H](Cc2ccccc2)NC(=O)[C@@H](NC(=O)CNC(=O)[C@H](CCC(=O)O)NC(=O)[C@H](C)NC(=O)[C@@H](N)Cc2c[nH]cn2)[C@@H](C)O)[C@@H](C)O)C(=O)N[C@@H](CCCNC(=N)N)C(=O)N[C@@H](CCCNC(=N)N)C(=O)N[C@@H](C)C(=O)N1)C(C)C)C(=O)N[C@@H](CC(=O)O)C(=O)N[C@H](C(N)=O)[C@@H](C)O
Consider B9, for which, in the assay with GLP-1 receptor [9], the “GLP-1 EC50” value turned out to be 0.2 nM. In addition, the “Glucagon IC50” value with glucagon receptor [1] came to 130 nM.

B10: E9, K12, E16 glucagon(6-39) Cex peptide (peptide)
peptide: FTSEYSKYLDERRAQDFVQWLMNTGPSSGAPPPS-NH2
On to B10, for which the “Glu IC50” value in the assay with glucagon receptor [11] was 762 nM. In addition, in the assay with glucagon receptor [3], the “Glucagon IC50” value was found to be 762 nM.

B11: Inactive GLP-1 (d-amino acid containing)/Estrogen(3-ester) (peptide)
peptide: [dA][Aib][dE]G[dT][dF][dT][dS][dD][dV][dS][dS][dY][dL][dE]G[dQ][dA][dA][dK][dE][dA][dI][dA][dW][dL][dV][dK]GG[dP][dS][dS]G[dA][dP][dP][dP][dS]K([Suc-estradiol])-NH2
Turning to B11, the “GLP-1 EC50 (cAMP induction, CRE-luciferase in HEK293 cells)” value in the assay with GLP-1 receptor [10] amounted to 562 nM.

B12: E9, E16K20(lactam) glucagon(6-39) Cex peptide (peptide)
peptide: FTSEYSKYLDERRAKDFVQWLMNTGPSSGAPPPS-NH2
modifications: lactam 11-15; N-terminus assumed
SMILES: CSCC[C@H](NC(=O)[C@H](CC(C)C)NC(=O)[C@H](Cc1c[nH]c2ccccc12)NC(=O)[C@H](CCC(N)=O)NC(=O)[C@@H](NC(=O)[C@H](Cc1ccccc1)NC(=O)[C@H](CC(=O)O)NC(=O)[C@@H]1CCCCNC(=O)CC[C@H](NC(=O)[C@H](CC(=O)O)NC(=O)[C@H](CC(C)C)NC(=O)[C@H](Cc2ccc(O)cc2)NC(=O)[C@H](CCCCN)NC(=O)[C@H](CO)NC(=O)[C@H](Cc2ccc(O)cc2)NC(=O)[C@H](CCC(=O)O)NC(=O)[C@H](CO)NC(=O)[C@@H](NC(=O)[C@@H](N)Cc2ccccc2)[C@@H](C)O)C(=O)N[C@@H](CCCNC(=N)N)C(=O)N[C@@H](CCCNC(=N)N)C(=O)N[C@@H](C)C(=O)N1)C(C)C)C(=O)N[C@@H](CC(N)=O)C(=O)N[C@H](C(=O)NCC(=O)N1CCC[C@H]1C(=O)N[C@@H](CO)C(=O)N[C@@H](CO)C(=O)NCC(=O)N[C@@H](C)C(=O)N1CCC[C@H]1C(=O)N1CCC[C@H]1C(=O)N1CCC[C@H]1C(=O)N[C@@H](CO)C(N)=O)[C@@H](C)O
For B12, the “GLP-1 EC50” value in the assay with GLP-1 receptor [12] and with GLP-1 receptor [2] was 36 nM in each case. Also, the “Glu IC50” value with glucagon receptor [11] stood at 42 nM. In addition, in the assay with glucagon receptor [3], the “Glucagon IC50” value amounted to 42 nM.

B13: D9, K12E16(Lactam) glucagon(6-39) Cex peptide (peptide)
peptide: FTSDYSKYLDERRAQDFVQWLMNTGPSSGAPPPS-NH2
modifications: lactam 7-11; not fully specified
Regarding B13, the figures for the “GLP-1 EC50” value with GLP-1 receptor [12] and with GLP-1 receptor [2] were 119 nM and 18 nM, respectively. Besides, in the assay with glucagon receptor [11], the “Glu IC50” value was 828 nM. In addition, in the assay with glucagon receptor [3], the “Glucagon IC50” value stood at 828 nM.

B14: E9, K12E16(lactam) glucagon(6-39) Cex peptide (peptide)
peptide: FTSEYSKYLDERRAQDFVQWLMNTGPSSGAPPPS-NH2
modifications: lactam 7-11; N-terminus assumed
SMILES: CSCC[C@H](NC(=O)[C@H](CC(C)C)NC(=O)[C@H](Cc1c[nH]c2ccccc12)NC(=O)[C@H](CCC(N)=O)NC(=O)[C@@H](NC(=O)[C@H](Cc1ccccc1)NC(=O)[C@H](CC(=O)O)NC(=O)[C@H](CCC(N)=O)NC(=O)[C@H](C)NC(=O)[C@H](CCCNC(=N)N)NC(=O)[C@H](CCCNC(=N)N)NC(=O)[C@@H]1CCC(=O)NCCCC[C@H](NC(=O)[C@H](CO)NC(=O)[C@H](Cc2ccc(O)cc2)NC(=O)[C@H](CCC(=O)O)NC(=O)[C@H](CO)NC(=O)[C@@H](NC(=O)[C@@H](N)Cc2ccccc2)[C@@H](C)O)C(=O)N[C@@H](Cc2ccc(O)cc2)C(=O)N[C@@H](CC(C)C)C(=O)N[C@@H](CC(=O)O)C(=O)N1)C(C)C)C(=O)N[C@@H](CC(N)=O)C(=O)N[C@H](C(=O)NCC(=O)N1CCC[C@H]1C(=O)N[C@@H](CO)C(=O)N[C@@H](CO)C(=O)NCC(=O)N[C@@H](C)C(=O)N1CCC[C@H]1C(=O)N1CCC[C@H]1C(=O)N1CCC[C@H]1C(=O)N[C@@H](CO)C(N)=O)[C@@H](C)O
Take B14: the “GLP-1 EC50” value in the assay with GLP-1 receptor [12] and with GLP-1 receptor [2] was 63 nM each time. Moreover, the “Glu IC50” value with glucagon receptor [11] was 2010 nM. Moreover, the “Glucagon IC50” value with glucagon receptor [3] was found to be 2010 nM.

For the origin of these results see patent publication US20130157934A1 (INDIANA UNIVERSITY RESEARCH AND TECHNOLOGY, published 2013).
